One protein from paper PMC3458034, “Structure and Flexibility of the C-Ring in the Electromotor of Rotary FoF1-ATPase of Pea Chloroplasts” (PLoS ONE, 2012) can be followed below.

This series concerns the molecule itself. The experiment in a line: crystal structure; c-ring from a native preparation in detergent; crystals grown in 100 mM Na-acetate pH 4.5, 50 mM MgCl2, 50 mM NaCl, 10 mM yttrium chloride, 14-24% PEG 550 MME; 3.4 Å.

B1: chloroplast ATP synthase subunit-c of the green pea (Pisum sativum), as the c-ring (natural protein, UniProt P08212 1-81, looked up)
chain: MNPLIAAASVIAAGLAVGLASIGPGVGQGTAAGQAVEGIARQPEAEDKIRGTLLLSLAFMEALTIYGLVVALALLFANPFV
notes: ATP synthase (CFoCF1) subunit c of the chloroplast, Pisum sativum; each monomer is printed as an 81-residue hairpin-shaped polypeptide (TM1 residues 4-41, loop 42-45, TM2 46-75); Native preparation, no tags; Homo-tetradecameric ring in the crystal; also called c-subunit; c14; source: purified from thylakoid membranes of P. sativum var; Alaska young leaves (DDM, PEG precipitation, sucrose …)
One may read the stoichiometry N as a count of units in the complex or per binding partner. In the case of B1, the “stoichiometry N” value was 14.
